Source: patent publication US20130149305A1 (UNIVERSITY OF MARYLAND BALTIMORE COUNTY, published 2013)

Tests used:
[1] = target: human CD28 on PHA-activated T cells of PBMC (human) (UniProt P10747); assay: cell-based or functional assay
[2] = target: T1, mouse PDL1 co-expressed with mouse CD80 on CD80-transfected 4T1 cells (4T1/CD80) (mouse, UniProt Q9EP73 19-290; Q00609 38-306); assay: flow cytometry on IFN-gamma-treated cells, sPD1-Fc detected with anti-PD1-APC
T1 construct: whole, on cells; also called PDL1 on 4T1/CD80 cells; PDL1+CD80+ 4T1/CD80 cells
T1 sequence (Q9EP73 19-290, chain 1 of 2): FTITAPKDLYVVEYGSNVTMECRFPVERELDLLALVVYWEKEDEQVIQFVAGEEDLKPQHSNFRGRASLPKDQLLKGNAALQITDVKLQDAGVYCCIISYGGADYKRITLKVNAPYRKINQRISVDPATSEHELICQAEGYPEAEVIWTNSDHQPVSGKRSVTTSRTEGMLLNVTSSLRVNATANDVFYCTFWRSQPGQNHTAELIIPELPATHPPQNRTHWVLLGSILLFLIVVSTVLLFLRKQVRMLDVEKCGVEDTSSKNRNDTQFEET
T1 sequence (Q00609 38-306, chain 2 of 2): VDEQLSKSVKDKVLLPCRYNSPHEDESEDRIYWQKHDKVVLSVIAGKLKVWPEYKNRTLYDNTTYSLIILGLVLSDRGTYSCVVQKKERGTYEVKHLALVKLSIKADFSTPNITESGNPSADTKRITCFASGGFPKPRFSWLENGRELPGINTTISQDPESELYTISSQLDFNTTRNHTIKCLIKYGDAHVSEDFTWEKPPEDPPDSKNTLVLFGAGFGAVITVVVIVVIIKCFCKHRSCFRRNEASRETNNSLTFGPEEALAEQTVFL

human CD28 on PHA-activated T cells of PBMC (human), sequence (P10747 19-220): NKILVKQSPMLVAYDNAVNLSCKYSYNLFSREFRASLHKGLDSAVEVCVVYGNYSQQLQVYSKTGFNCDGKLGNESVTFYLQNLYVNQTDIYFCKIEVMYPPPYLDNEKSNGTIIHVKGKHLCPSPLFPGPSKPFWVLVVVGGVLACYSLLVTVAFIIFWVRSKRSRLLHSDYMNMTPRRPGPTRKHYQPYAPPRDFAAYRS

increase of IFNγ production by PHA-activated PBMC, no tumor cells (ELISA) [1] | binding result [2] | Molecule
14 to 28% | – | soluble CD80-Fc: extracellular two domains of human CD80 fused to the Fc domain of IgG1 (Fc fusion)
– | no binding | recombinant mouse PD1-Fc fusion protein (Fc fusion, UniProt Q02242 25-167, looked up, Recombinant reagent; also called sPD1-Fc (mouse); soluble form of PD1; not shown: Fc part) LEVPNGPWRSLTFYPAWLTVSEGANATFTCSLSNWSEDLMLNWNRLSPSNQTEKQAAFCNGLSQPVQDARFQIIQLPNRHDFHMNILDTRRNDSGIYLCGAISLHPKAKIEESPGAELVVTERILETSTRYPSPSPKPEGRFQ
